In test [1] the target is T1, soluble CD23 antigen (soluble and monomeric form) (UniProt P06734 150-321, limits assumed).
T1 construct: also called free CD23
T1 sequence (looked up): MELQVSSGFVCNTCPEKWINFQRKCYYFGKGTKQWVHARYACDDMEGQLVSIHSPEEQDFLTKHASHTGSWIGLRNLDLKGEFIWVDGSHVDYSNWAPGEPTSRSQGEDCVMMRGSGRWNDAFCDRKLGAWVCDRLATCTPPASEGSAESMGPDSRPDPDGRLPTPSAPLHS
Nature of the test: isothermal titration calorimetry, average over temperatures. As for the experimental part: Isothermal titration calorimetry (ITC) accurately measures the thermodynamics of protein-protein interactions and can further provide the stoichiometry of the experimental complex. CD23, C-terminal tetravalent p5E8, p5E8 IgG and p5E8 Fab were extensively dialyzed for 12 hours against PBS. ITC experiments were performed on an iTC200 microcalorimeter (MicroCal LLC, Northampton, Mass.). After degassing, 25×1.5 μl aliquots of 100 μM CD23 were injected at 5 minute intervals into the 350-μl sample cell containing 5 μM solutions of antibody/Fab. Raw data were then integrated and fitted using a nonlinear least squares routine in ITC data analysis software ORIGIN (MicroCal LLC, Northampton, Mass.). The fitting generated values for the independent variables ΔH⁰ (binding enthalpy), N (the stoichiometry), and Kb (binding constant). For each antibody/Fab, ITC experiments were performed at 5° C., 15° C., 25° C., and 37° C. in order to determine the temperature dependence on the binding heats and to optimize the experiments to obtain better signal to noise.
The CD23 in the syringe and the antibody in the sample cell are both monomers in solution. On fitting the data, N values approximating 1, 2, and 4 would indicate binding of all available antigen binding sites for the p5E8 Fab, p5E8 IgG and the C-terminal tetravalent p5E8, respectively. […]
A general note: In ITC the heat of successive injections is recorded.

The target of test [2] is T1, soluble CD23 antigen (soluble and …). Nature of the test: solution-phase competition Biacore, free CD23 read on an immobilised p5E8 chip; average of three titrations. As to the method: In this experiment, the concentration of free CD23 (soluble and monomeric form) in solution is determined by the initial rate of binding to a CM5 Biacore chip containing immobilized p5E8 MAb. Into these CD23 solutions were titrated the p5E8 Fab prepared by papain digestion (one potential binding site), p5E8 MAb (two potential binding sites), and the C-terminal anti-CD23 tetravalent antibody (four potential binding sites). The p5E8 Fab, MAb, and tetravalent antibody are the ligands and CD23 is the analyte being tested.
P5E8 was immobilized to 20247 RUs on a CM5 sensor chip. CD23 and CD23 plus antibody were flowed over the sensor chip at a 10 μl/min for 3 minutes. Initial binding rates were obtained from a fit to the initial linear portion of the raw sensorgram data (FIG. 23A). The N (stoichiometry) values were determined by plotting the antibody concentration against the initial rate, Vᵢ, obtained at each concentration (FIG. 23B). […] Three experiments measured the initial rates of binding of free CD23 to the p5E8 sensor chip (concentrations for CD23 ranged from 0.15 to 15 nM) in the presence of constant concentrations of antibody of 1, 2.5 and 10 nM. […] The calculated stoichiometries correspond to binding of CD23 antigen to all four available antigen binding sites for the C-terminal tetravalent p5E8.

B1: PRIMATIZED p5E8 Fab (Fab, V domains shown)
VH: EVQLVESGGGLAKPGGSLRLSCAASGFRFTFNNYYMDWVRQAPGQGLEWVSRISSSGDPTWYADSVKGRFTISRENAKNTLFLQMNSLRAEDTAVYYCASLTTGSDSWGQGVLVTVSS
VL: DIQMTQSPSSLSASVGDRVTITCRASQDIRYYLNWYQQKPGKAPKLLIYVASSLQSGVPSRFSGSGSGTEFTLTVSSLQPEDFATYYCLQVYSTPRTFGQGTKVEIKR
notes: domain: CH1
As for B1, the “Avg. N (stoichiometry)” value in test [1] came to 0.99. Moreover, the “N (stoichiometry, CD23 molecules bound per antibody)” value in test [2] came to 1.05.

(Values after patent publication US20090155255A1 (Biogen, published 2009).)
